Literature values in publication PMC8895726.

Biological target: LAG-3:Fc (Mus musculus) (UniProt Q61790)
Assay: BLI

UniProt Q61790, sequence (Q61790 24-442): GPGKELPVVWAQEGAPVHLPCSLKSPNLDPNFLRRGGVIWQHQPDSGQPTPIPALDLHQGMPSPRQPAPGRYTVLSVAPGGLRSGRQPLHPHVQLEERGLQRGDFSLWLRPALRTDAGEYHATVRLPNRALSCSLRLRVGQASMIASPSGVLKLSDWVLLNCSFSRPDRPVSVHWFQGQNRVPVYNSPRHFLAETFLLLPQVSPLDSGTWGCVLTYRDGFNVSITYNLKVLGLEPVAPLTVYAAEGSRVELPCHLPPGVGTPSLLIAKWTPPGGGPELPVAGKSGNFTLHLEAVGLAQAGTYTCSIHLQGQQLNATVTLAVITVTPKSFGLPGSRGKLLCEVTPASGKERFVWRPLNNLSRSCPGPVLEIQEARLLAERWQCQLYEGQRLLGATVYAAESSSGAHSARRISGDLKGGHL

FGL1 (from UniProt Q71KU9)
Kd: 1.5 nM
